Columns and labels:
[1] = target: T1, CRD2-3; assay: ELISA, coated CD137-Fc protein 2 µg/mL, antibody 10 or 5 µg/mL; absorbance 620 nm divided by that of the uncoated well
T1 construct: also called fragmented human CD137-Fc fusion protein CRD2-3

[2] = target: T2, CRD1-2; assay: as above
T2 construct: also called fragmented human CD137-Fc fusion protein CRD1-2

[3] = target: T3, CRD3-4; assay: as above
T3 construct: also called fragmented human CD137-Fc fusion protein CRD3-4

[4] = target: T4, CRD1; assay: as above
T4 construct: also called fragmented human CD137-Fc fusion protein CRD1
T4 sequence (chain, as listed by the source limits assumed): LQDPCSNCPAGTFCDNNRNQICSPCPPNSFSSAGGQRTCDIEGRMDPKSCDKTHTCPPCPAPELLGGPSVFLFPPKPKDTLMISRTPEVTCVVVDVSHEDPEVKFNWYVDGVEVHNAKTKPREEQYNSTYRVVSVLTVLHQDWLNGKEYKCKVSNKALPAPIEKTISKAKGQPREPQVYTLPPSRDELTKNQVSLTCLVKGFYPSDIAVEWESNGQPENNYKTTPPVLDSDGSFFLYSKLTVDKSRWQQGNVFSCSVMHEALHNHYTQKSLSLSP

[5] = target: T5, CRD1-3; assay: as above
T5 construct: also called fragmented human CD137-Fc fusion protein CRD1-3
T5 sequence (chain, as listed by the source limits assumed): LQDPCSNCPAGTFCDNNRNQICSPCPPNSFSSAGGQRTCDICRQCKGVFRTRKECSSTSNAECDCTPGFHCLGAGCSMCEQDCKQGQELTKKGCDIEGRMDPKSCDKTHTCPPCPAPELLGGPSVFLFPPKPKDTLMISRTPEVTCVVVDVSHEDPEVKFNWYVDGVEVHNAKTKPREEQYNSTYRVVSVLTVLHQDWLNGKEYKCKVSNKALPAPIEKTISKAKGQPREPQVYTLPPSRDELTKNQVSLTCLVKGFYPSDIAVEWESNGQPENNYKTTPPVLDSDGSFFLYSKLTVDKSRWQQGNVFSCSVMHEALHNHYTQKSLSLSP

[6] = target: T6, CRD2-4; assay: as above
T6 construct: also called fragmented human CD137-Fc fusion protein CRD2-4
T6 sequence (chain, as listed by the source limits assumed): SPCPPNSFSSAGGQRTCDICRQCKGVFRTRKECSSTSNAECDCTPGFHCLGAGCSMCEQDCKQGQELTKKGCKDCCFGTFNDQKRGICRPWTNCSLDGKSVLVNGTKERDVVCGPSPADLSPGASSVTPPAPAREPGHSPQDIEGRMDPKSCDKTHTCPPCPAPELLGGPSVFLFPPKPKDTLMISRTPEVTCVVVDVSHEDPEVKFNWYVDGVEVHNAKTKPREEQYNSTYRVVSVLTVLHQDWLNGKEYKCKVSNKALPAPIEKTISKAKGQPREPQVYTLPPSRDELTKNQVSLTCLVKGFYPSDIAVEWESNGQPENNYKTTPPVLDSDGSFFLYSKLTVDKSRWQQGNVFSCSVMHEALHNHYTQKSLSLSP

[7] = target: full-length human CD137-Fc fusion protein (human); assay: as above
Chain of full-length human CD137-Fc fusion protein (human) (chain, as listed by the source limits assumed): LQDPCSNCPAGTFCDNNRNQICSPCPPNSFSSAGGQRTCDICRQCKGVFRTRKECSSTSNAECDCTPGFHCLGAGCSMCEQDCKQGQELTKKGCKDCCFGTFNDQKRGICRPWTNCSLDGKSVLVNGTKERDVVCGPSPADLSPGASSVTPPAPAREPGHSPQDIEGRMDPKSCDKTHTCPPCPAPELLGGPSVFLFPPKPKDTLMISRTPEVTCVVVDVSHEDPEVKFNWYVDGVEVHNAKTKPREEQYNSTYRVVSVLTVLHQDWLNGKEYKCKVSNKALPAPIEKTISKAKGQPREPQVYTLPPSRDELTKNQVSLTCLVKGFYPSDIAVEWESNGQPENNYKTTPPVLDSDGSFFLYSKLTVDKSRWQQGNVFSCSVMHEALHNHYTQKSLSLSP

[8] = target: T1, CRD2-3; assay: ELISA, coated CD137-Fc protein 2 µg/mL, antibody 10 or 5 µg/mL, absorbance 620 nm; Non (uncoated well) 0.049
[9] = target: T2, CRD1-2; assay: as above
[10] = target: T3, CRD3-4; assay: as above
[11] = target: T4, CRD1; assay: as above
[12] = target: T5, CRD1-3; assay: as above
[13] = target: T6, CRD2-4; assay: as above
[14] = target: full-length human CD137-Fc fusion protein (human); assay: as above
[15] = target: T1, CRD2-3; assay: ELISA, coated CD137-Fc protein 2 µg/mL, antibody 10 or 5 µg/mL, absorbance 620 nm; Non (uncoated well) 0.101
[16] = target: T2, CRD1-2; assay: as above
[17] = target: T3, CRD3-4; assay: as above
[18] = target: T5, CRD1-3; assay: as above
[19] = target: T6, CRD2-4; assay: as above
[20] = target: full-length human CD137-Fc fusion protein (human); assay: as above
[21] = target: T7, mouse Fcγ receptor II extracellular domain with C-terminal His tag (mouse, UniProt P08101 30-210); assay: SPR (Biacore); against naturally-occurring mIgG1 (H237-mIgG1/MRAL-k0)
T7 construct: extracellular domain; also called mFcγRII; mFcgRII; not shown: His tag at the C terminus
T7 sequence (looked up): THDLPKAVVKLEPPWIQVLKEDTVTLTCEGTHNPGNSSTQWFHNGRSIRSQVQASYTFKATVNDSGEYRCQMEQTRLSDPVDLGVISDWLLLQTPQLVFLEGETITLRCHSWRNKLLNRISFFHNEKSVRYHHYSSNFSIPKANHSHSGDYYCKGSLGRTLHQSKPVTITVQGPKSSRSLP

[22] = target: T8, mouse Fcγ receptor III extracellular domain with C-terminal His tag (mouse, UniProt P08508 31-215); assay: as above
T8 construct: extracellular domain; also called mFcγRIII; not shown: His tag at the C terminus
T8 sequence (looked up): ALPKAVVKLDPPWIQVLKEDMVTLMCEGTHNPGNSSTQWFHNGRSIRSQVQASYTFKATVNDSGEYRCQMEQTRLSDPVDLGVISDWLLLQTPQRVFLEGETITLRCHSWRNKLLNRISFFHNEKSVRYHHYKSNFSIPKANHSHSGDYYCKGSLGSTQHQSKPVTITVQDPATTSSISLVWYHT

[23] = target: T7, mouse Fcγ receptor II extracellular …; assay: SPR (Biacore) kinetics, antibody captured on Protein L, mFcγR as analyte, 1:1 Langmuir model
Protocol: (§1) The ion exchange column chromatography of step 1 was carried out using Q Sepharose HP for mFcγRI, using SP Sepharose FF for mFcγRII and mFcγRIV, and using SP Sepharose HP for mFcγRIII. While the solvent used in step 3 and the subsequent step was D-PBS(−), D-PBS(−) containing 0.1 M Arginine was used for mFcγRIII. The absorbance at 280 nm was measured for the purified proteins using a spectrophotometer. […] The interaction between each modified antibody and the Fcγ receptor prepared as mentioned above was analyzed using Biacore T100 (GE Healthcare), Biacore T200 (GE Healthcare), Biacore A100, and Biacore 4000. The running buffer used was HBS-EP+(GE Healthcare) and the measurement temperature was set to 25° C. The chip used was: a Series S Sensor Chip CM5 (GE Healthcare) or Series S Sensor Chip CM4 (GE Healthcare) to which Protein L (ACTIGEN or BioVision) was immobilized by the amine coupling method. Antibodies of interest were captured onto these sensor chips, and mFcγR diluted with the running buffer was allowed to interact with them. The amount bound by the antibodies was measured and compared between the antibodies. However, since the amount of mFcγR bound depends on the amount of the captured antibody, the comparison was carried out on corrected values obtained by dividing the amount of bound mFcγR by the amount of each antibody captured. Furthermore, 10 mM glycine-HCl, pH 1.5 was reacted to wash out the captured antibody from the sensor chips, and the sensor chip was regenerated and used repeatedly. Kinetic analyses for calculating the KD values of each altered antibody to FcγR were performed according to the method below. First, antibodies of interest were captured onto the above-mentioned sensor chips, and mFcγR diluted with the running buffer was allowed to interact with them. […] From those values, the dissociation constant KD (mol/L) was determined.

[24] = target: T8, mouse Fcγ receptor III extracellular …; assay: as above
Protocol: as §1

T2 sequence (chain, as listed by the source limits assumed): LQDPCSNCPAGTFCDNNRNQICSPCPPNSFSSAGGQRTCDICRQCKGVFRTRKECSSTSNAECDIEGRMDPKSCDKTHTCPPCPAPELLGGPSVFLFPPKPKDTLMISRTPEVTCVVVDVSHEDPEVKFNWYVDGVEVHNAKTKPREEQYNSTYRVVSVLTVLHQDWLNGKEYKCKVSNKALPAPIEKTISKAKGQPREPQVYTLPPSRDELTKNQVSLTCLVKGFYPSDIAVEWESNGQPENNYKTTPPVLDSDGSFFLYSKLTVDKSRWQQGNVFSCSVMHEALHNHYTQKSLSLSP
T1 sequence (chain, as listed by the source limits assumed): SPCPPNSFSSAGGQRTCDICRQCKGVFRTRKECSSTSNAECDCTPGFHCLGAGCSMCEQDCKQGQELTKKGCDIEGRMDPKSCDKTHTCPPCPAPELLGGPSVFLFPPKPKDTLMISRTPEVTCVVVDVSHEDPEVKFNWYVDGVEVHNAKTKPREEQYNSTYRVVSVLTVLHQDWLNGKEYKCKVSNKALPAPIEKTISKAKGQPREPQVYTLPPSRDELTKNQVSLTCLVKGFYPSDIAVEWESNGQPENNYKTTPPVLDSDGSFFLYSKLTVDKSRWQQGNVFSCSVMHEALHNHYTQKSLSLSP
T3 sequence (chain, as listed by the source limits assumed): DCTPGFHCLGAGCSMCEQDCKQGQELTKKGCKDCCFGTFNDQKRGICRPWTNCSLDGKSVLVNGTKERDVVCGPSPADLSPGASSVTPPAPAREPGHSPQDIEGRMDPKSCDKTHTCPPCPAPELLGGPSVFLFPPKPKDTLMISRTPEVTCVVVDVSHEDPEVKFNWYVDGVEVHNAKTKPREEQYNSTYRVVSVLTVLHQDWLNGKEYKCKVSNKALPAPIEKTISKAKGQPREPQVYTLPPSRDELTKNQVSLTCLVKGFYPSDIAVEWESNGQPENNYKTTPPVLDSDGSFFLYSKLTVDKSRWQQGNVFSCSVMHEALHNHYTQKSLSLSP

B1: B (antibody, human IgG1, kappa, V domains shown)
VH: QVQLQQWGAGLLKPSETLSLTCAVYGGSFSGYYWSWIRQSPEKGLEWIGEINHGGYVTYNPSLESRVTISVDTSKNQFSLKLSSVTAADTAVYYCARDYGPGNYDWYFDLWGRGTLVTVSS
VL: EIVLTQSPATLSLSPGERATLSCRASQSVSSYLAWYQQKPGQAPRLLIYDASNRATGIPARFSGSGSGTDFTLTISSLEPEDFAVYYCQQRSNWPPALTFGGGTKVEIKR
notes: also called Control B
Ratio with respect to Non-Coating [1]: 1.8
Ratio with respect to Non-Coating [2]: 52.7
Ratio with respect to Non-Coating [3]: 1.5
Ratio with respect to Non-Coating [4]: 35.7
Ratio with respect to Non-Coating [5]: 47.5
Ratio with respect to Non-Coating [6]: 2
Ratio with respect to Non-Coating [7]: 54.6
ELISA color development level [8]: 0.089
ELISA color development level [9]: 2.58
ELISA color development level [10]: 0.074
ELISA color development level [11]: 1.75
ELISA color development level [12]: 2.33
ELISA color development level [13]: 0.097
ELISA color development level [14]: 2.67

B2: R10 (antibody, V domains shown)
VH: not shown
VL: DIQMTQSPSSLSASVGDRVTITCRASQSISSYLNWYQQKPGKAPKLLIYAASSLQSGVPSRFSGSGSGTDFTLTISSLQPEDFATYYCQQFDNFPLTFGGGTKVEIK
notes: Synthetic library clone; Fab on phage in the phage ELISA
Ratio with respect to Non-Coating [1]: 26.1
Ratio with respect to Non-Coating [2]: 2.2
Ratio with respect to Non-Coating [3]: 27.2
Ratio with respect to Non-Coating [5]: 24.4
Ratio with respect to Non-Coating [6]: 24.3
Ratio with respect to Non-Coating [7]: 25.6
ELISA color development level [15]: 2.64
ELISA color development level [16]: 0.222
ELISA color development level [17]: 2.75
ELISA color development level [18]: 2.46
ELISA color development level [19]: 2.46
ELISA color development level [20]: 2.59

B3: H237-MB492/MRAL-k0 (antibody, mouse IgG1, kappa)
heavy: QVQLQESGPGLVKPSETLSLTCAVSGHSISHDHAWSWVRQPPGEGLEWIGFISYSGITNYNPSLQGRVTISRDNSKNTLYLQMNSLRAEDTAVYYCARSLARTTAMDYWGEGTLVTVSSAKTTPPSVYPLAPGSAAQTNSMVTLGCLVKGYFPEPVTVTWNSGSLSSGVHTFPAVLQSDLYTLSSSVTVPSSTWPSETVTCNVAHPASSTKVDKKIVPRDCGCKPCICEPNEVEDVFIFPPKPKDVLTITLTPKVTCVVVDISKDDPEVQFSWFVDDVEVHTAQTQPREEQFNSTFRSVSELPIMHQDWLNGKEFKCRVDSAAFPAPIEKTISKTKGRPKAPQVYTIPPPKEQMAKDKVSLTCMITDFFPEDITVEWQWNGQPAENYKNTQPIMDTDGSYFVYSKLNVQKSNWEAGNTFTCSVLHEGLHNHHTEKSLSHSPGK
light: not shown
notes: Mouse IgG1 constant region variant MB492 (T230E, V231P, P232N, S238E, S239D, N324D, as described for 1D8VH-MB492); copies: 2 + 2
Relative binding activity [21]: 622 fold (mIgG1 = 1)
Relative binding activity [22]: 10.9 fold (mIgG1 = 1)
Kd [23]: 0.338 nM
Kd [24]: 25.8 nM

Reference: patent US20170022287A1 (Chugai, published 2017)
